Source: patent US20140255415A1 (Novartis, published 2014)

Experiments:
[1] = biological target: T1, rat LINGO-1 expressed on CHO-K1 cells (CHO-K1-rLINGO-1) (rat, UniProt A0A8I5ZPI2 34-614); assay: apparent KD, FACS saturation binding on CHO-K1-rLINGO-1 cells, Fab format
T1 construct: range 34-614; not shown: 2 amino acid residue linker
T1 sequence: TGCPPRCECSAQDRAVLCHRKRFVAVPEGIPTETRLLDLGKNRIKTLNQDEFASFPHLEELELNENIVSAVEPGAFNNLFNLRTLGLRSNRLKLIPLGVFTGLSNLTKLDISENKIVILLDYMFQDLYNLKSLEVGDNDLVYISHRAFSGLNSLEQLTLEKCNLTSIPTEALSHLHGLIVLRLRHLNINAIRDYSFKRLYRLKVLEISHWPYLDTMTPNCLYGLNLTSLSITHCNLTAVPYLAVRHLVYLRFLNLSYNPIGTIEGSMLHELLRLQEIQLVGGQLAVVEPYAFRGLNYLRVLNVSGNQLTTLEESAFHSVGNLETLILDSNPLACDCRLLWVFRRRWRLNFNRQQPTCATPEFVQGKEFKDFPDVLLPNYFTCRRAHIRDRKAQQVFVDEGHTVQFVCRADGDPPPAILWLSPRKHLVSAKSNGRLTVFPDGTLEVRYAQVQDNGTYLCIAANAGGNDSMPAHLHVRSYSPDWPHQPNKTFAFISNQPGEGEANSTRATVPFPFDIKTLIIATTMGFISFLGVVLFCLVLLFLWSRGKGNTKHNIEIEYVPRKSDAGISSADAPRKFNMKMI
Description: Cell based affinity of anti-LINGO-1 specific antibodies is determined by FACS saturation binding experiments. […] Otherwise the staining procedure is done identical to the FACS staining procedure described above.
In detail, CHO-K1-hLINGO-1, CHO-K1-cmLINGO-1 or CHO-K1-rLINGO-1 are detached from culture flasks by versene, washed with FACS buffer and resuspended in FACS buffer. Purified anti-LINGO-1 Fabs are serially diluted in FACS buffer and spread into round bottom 96-well microtiter plates (NUNC™, Wiesbaden, Germany). For each concentration, duplicate wells are incubated with 1.25×10⁴ cells for 30-60 min on ice in a total volume of 100 μl.

[2] = biological target: T2, human LINGO-1-ΔLRR-Fc (Igleader-hsLINGO-1-ΔLRR-Fc) (human, UniProt Q96FE5 40-556); assay: ELISA, Fc fusion captured via goat anti-human IgG Fc, Fab detected with AP-conjugated secondary and AttoPhos
T2 construct: Heterologous secretion signal left out; also called human LINGO-1 lacking the LRR domain
T2 sequence: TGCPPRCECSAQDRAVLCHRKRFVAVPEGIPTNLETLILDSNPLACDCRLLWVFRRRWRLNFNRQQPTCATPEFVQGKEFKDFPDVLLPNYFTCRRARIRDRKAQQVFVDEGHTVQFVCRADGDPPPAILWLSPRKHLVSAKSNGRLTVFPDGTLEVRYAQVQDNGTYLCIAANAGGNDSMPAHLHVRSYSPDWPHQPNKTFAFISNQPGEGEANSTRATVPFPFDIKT

[3] = biological target: human LINGO-1 expressed on CHO-K1 cells (CHO-K1-hLINGO-1) (human) (UniProt Q96FE5); assay: apparent KD, FACS saturation binding on CHO-K1-hLINGO-1 cells, Fab format
[4] = biological target: T2, human LINGO-1-ΔLRR-Fc …; assay: ELISA, captured Fc fusion protein
[5] = biological target: T3, human NgR-Fc fusion protein (R&D Systems) (human, UniProt Q9BZR6 27-447, limits assumed); assay: ELISA, captured Fc fusion protein
T3 construct: Commercial protein; also called captured human NgR-Fc; not shown: Fc part of the commercial fusion protein; not described
T3 sequence (looked up): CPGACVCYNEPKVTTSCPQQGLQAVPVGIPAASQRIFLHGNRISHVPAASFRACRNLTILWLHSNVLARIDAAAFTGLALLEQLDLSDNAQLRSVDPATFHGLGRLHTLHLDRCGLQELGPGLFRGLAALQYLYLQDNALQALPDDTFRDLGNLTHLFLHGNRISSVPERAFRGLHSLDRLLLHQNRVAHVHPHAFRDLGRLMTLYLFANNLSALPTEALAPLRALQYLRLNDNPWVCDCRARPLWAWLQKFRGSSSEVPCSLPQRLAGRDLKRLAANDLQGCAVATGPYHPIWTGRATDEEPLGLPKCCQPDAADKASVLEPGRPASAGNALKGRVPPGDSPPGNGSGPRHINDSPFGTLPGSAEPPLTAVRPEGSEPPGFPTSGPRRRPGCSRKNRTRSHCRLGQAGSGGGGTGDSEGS

Kd [1]: 0.26 nM
relative fluorescence units (RFU) [2]: 8 RFU
Kd [3]: 0.35 nM
binding result [4]: no binding
binding result [5]: no binding
B1: anti-LINGO-1 Fab 4785 (Fab, V domains shown)
VH: QVQLQQSGPGLVKPSQTLSLTCAISGDSVSDNSAAWSWIRQSPGRGLEWLGLIYLRSKWDNDYAVSVKSRITINPDTSKNQFSLQLNSVTPEDTAVYYCARTGRADEFDVWGQGTLVTVSS
VL: DIVLTQPPSVSGAPGQRVTISCSGSSSNIGNNYVSWYQQLPGTAPKLLISRNSKRPSGVPDRFSGSKSGTSASLAITGLQSEDEADYYCSTYDTFSIVFGGGTKLTVLG
